Drawing on paper PMC4169075, this text covers amount associated with β2^FLAG relative to wildtype γ2L^HA for three substances.

In the experiment the target is GABAA receptor β2 subunit, FLAG-tagged (β2^FLAG) (human) (UniProt P47870). The experiment can be described thus: co-IP.
“GABAA receptor γ2L(N79S) subunit, HA-tagged (γ2L(N79S)^HA)” gave an amount associated with β2^FLAG relative to wildtype γ2L^HA of 0.94.

“GABAA receptor γ2L(P83S) subunit, HA-tagged (γ2L(P83S)^HA)” returned an amount associated with β2^FLAG relative to wildtype γ2L^HA of 0.71.

As to “GABAA receptor γ2L(R82Q) subunit, HA-tagged (γ2L(R82Q)^HA)”, the amount associated with β2^FLAG relative to wildtype γ2L^HA worked out at 0.47.
